Test results: patent US20250368742A1 (D2M BIOTHERAPEUTICS, published 2025)
Substitutions are numbered along the chain they refer to.

Legend:
human MICA004 on cells = molecular target: T1, human MICA004 on cells (human); test: flow cytometry, CHO-MICA004 cells
T1 construct: whole, on cells; also called CHO-MICA004; C1R-MICA004
Protocol: IgG1 is an isotype control (IgG). The antibody binding signals of APC (gMFI) to MICA/B were measured by flow cytometry.
After an incubation time of 30 minutes, the plate was centrifuged and cells were washed with PBS three times. […] After mixing for 30 minutes at room temperature, cells were washed with PBS twice. Fluorescent signal was detected and quantified by flow cytometry (Attune™ CytPix™, ThermoFisher) within the population of live cells (viability dye PI negative).

human MICA002 on cells = molecular target: T2, human MICA002 on cells (human); test: flow cytometry, CHO-MICA002 cells
T2 chain: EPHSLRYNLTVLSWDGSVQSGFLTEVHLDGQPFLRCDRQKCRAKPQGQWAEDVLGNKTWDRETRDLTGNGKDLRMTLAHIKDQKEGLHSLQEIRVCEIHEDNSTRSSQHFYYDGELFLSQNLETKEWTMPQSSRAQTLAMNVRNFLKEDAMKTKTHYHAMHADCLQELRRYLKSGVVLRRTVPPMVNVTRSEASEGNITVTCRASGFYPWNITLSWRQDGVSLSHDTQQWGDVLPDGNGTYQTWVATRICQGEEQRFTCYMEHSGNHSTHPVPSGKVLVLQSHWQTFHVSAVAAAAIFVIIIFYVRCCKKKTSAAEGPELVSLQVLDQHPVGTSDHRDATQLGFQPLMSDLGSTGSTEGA

human MICA008 on cells = molecular target: T3, human MICA008 on cells (human); test: flow cytometry, HeLa cells (MICA008)
T3 construct: whole, on cells; also called CHO-MICA008; C1R-MICA008

MICA002-ECD-HISAvi = molecular target: T4, MICA002-ECD-HISAvi (human, UniProt Q29983 24-308); test: BLI (GatorPrime); antibody on anti-hIgG Fc probe, monomeric antigen in solution;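 further: binding kinetics of anti-MICA/B antibodies measured by biolayer interferometry, with dissociation followed for about 10 min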
T4 construct: also called MICA002 polypeptide
T4 chain: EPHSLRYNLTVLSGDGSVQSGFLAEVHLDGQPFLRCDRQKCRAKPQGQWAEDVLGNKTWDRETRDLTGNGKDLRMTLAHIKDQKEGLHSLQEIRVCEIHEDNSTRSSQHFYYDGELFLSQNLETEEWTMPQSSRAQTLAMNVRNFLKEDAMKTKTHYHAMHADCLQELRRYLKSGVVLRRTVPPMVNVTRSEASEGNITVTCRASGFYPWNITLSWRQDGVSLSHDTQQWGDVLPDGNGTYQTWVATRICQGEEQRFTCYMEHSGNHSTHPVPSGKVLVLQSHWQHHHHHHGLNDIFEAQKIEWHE
Protocol: (§1) The binding kinetics of the antibodies were also measured using the GatorPrime BLI (Biolayer Interferometry) system (Gator Bio, USA). Specifically, the anti-MICA/B antibodies were loaded with HFC (Anti-hIgG Fc, Gator Bio, Cat #: 160003). […] The dissociation kinetics were monitored for approximately 10 minutes. The probes were regenerated between binding cycles with Regeneration Buffer (Gator Bio, Cat #: 120012). Binding kinetics were analyzed using software supplied by the manufacturer.

MICA004-ECD-HISAvi = molecular target: T5, MICA004-ECD-HISAvi (human); test: as above
T5 construct: also called MICA004 polypeptide
T5 chain: T4 chain with G14W, C36Y, L122V, M129V, K173E, G175S, T181R, G206S, W210R, S215T
Protocol: as §1

MICA008-ECD-HISAvi = molecular target: T6, MICA008-ECD-HISAvi (human); test: as above
T6 construct: Two sources under one name in the two kinetic assays; also called MICA008 polypeptide
T6 chain: T4 chain with G14W, C36Y, M129V, K173E, G206S, W210R, T213I, S215T, Q251R
Protocol: as §1

MICB005-ECD-HISAvi [1] = molecular target: T7, MICB005-ECD-HISAvi (human, UniProt Q29980 24-309); test: as above
T7 construct: Two sources under one name in the two kinetic assays; also called MICB005 polypeptide
T7 sequence: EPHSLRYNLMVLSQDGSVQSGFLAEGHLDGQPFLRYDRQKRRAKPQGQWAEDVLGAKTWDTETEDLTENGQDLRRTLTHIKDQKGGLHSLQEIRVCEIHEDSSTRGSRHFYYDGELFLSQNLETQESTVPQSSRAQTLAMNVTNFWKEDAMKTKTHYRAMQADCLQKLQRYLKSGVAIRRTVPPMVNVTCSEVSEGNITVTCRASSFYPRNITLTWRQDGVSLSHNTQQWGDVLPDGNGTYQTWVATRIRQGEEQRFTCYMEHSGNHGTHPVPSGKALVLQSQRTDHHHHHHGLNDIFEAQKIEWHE
Protocol: as §1

MICA009Avi = molecular target: T8, MICA009Avi (human); test: as above
T8 construct: extracellular domain
Protocol: as §1

[2] = molecular target: T9, Cynomolgus monkey MICA (cynoMICA) (Cynomolgus monkey (Macaca fascicularis)); test: as above
T9 construct: also called cyno monkey MICA; cyno MIC protein
Protocol: as §1

MICB005-ECD-HISAvi [3] = molecular target: T7, MICB005-ECD-HISAvi; test: SPR (Carterra); antibody captured by anti-human Fc, monomeric ECD antigen injected;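 further: dissociation phase followed for about 10 min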
Protocol: The dissociation kinetics were monitored for approximately 10 minutes. The chip surface was regenerated between binding cycles with 10 mM glycine HCl, pH 1.7. Binding kinetics were analyzed using software supplied by the manufacturer.

human MICB005 on cells [4] = molecular target: T10, human MICB005 on cells (human); test: flow cytometry on CHO-MICB005 cells; column HSA_1w (1 week in human serum at 37 C)
T10 construct: whole, on cells; also called CHO-MICB005; C1R-MICB005
Protocol: (§2) The plate was centrifuged, and cells were washed with PBS three times. […] After incubation for 30 minutes at room temperature, cells were washed with PBS twice. Signals of APC were determined by flow cytometry (Attune™ CytPix™, ThermoFisher) within the population of live cells (viability dye PI negative).
(§3) The EC50 values were calculated based on non-linear fitting curves by GraphPad Prism software.

human MICB005 on cells [5] = molecular target: T10, human MICB005 on cells; test: flow cytometry on CHO-MICB005 cells; column HSA_2w (2 weeks in human serum at 37 C)
Protocol: as §2, §3

human MICB005 on cells [6] = molecular target: T10, human MICB005 on cells; test: flow cytometry on CHO-MICB005 cells; column Control_1w (control of the 1-week experiment)
Protocol: as §2, §3

human MICB005 on cells [7] = molecular target: T10, human MICB005 on cells; test: flow cytometry on CHO-MICB005 cells; column Control_2w (control of the 2-week experiment)
Protocol: as §2, §3

T1 sequence (Q29983 whole entry): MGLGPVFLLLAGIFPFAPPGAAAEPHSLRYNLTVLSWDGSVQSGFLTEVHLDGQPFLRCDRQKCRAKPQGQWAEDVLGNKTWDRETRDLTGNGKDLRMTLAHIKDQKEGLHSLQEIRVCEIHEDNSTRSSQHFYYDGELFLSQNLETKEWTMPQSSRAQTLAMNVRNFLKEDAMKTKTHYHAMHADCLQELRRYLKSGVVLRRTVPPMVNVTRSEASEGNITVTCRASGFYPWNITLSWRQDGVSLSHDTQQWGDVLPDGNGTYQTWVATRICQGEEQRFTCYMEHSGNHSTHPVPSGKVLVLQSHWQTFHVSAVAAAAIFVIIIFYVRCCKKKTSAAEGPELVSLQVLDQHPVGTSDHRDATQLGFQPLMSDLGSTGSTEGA

B1: 1D5 (antibody, human IgG1, kappa, V domains shown)
VH: EIQLQQSGPELVKPGASVKVSCKASGYAFTSQNIYWVKQSHGKSLEWIGYIEPYNVVPMYNPKFKGKATLTVDKSSSSAYIHLNSLTSEDSAIYYCARSGSSNFDYWGQGTTLTVSS
VL: EIILTQSPTTMAASPGEKITITCSASSSISSHYLHWYQQKSGFSPKLLIYRTSNLASGVPARFSGSGSGTSYSLTIGTMEAEDVATYYCQQGSSLPLTFGAGTKVEIKR
notes: also called ID5
- EC50 (human MICA004 on cells): 0.157 µg/mL
- EC50 (human MICA002 on cells): 0.301 µg/mL
- EC50 (human MICA008 on cells): 0.133 µg/mL
- Kd (MICA002-ECD-HISAvi): 0.0757 nM
- Kd (MICA004-ECD-HISAvi): 0.101 nM
- Kd (MICA008-ECD-HISAvi): 0.026 nM
- Kd (MICB005-ECD-HISAvi [1]): 0.195 nM
- Kd (MICA009Avi): 0.11 nM
- Kd [2]: 5.2 nM
- Kd (MICB005-ECD-HISAvi [3]): 2.3 nM
- EC50 (human MICB005 on cells [4]): 0.229 µg/mL
- EC50 (human MICB005 on cells [5]): 0.287 µg/mL
- EC50 (human MICB005 on cells [6]): 0.237 µg/mL
- EC50 (human MICB005 on cells [7]): 0.264 µg/mL

B2: 3F9 (antibody, human IgG1, kappa, V domains shown)
VH: QVQLVESGGGLVKPGGSLRLSCAASGFTFSNYAMSWIRQAPGKGLEWVSYISPGGDYIYYADSVKGRFTISRDNAKNSLYLQMNSLRAEDTAVYYCTTDRRHYGSYAMDYWGQGTLVTVSS
VL: DIVMTQSPLSLPVTPGEPASISCRSSKSLLHSNLNTYLYWFLQKPGQSPQILIYRMSNLASGVPDRFSGSGSGTAFTLKISRVEAEDVGVYYCMQHLEYPFTFGPGTKLEIKR
notes: also called benchmark 3F9
- EC50 (human MICA004 on cells): 0.443 µg/mL
- EC50 (human MICA002 on cells): 0.857 µg/mL
- EC50 (human MICA008 on cells): 0.651 µg/mL
- Kd (MICA002-ECD-HISAvi): 1.35 nM
- Kd (MICA004-ECD-HISAvi): 1.08 nM
- Kd (MICA008-ECD-HISAvi): 0.295 nM
- Kd (MICB005-ECD-HISAvi [1]): 2.19 nM
- Kd (MICA009Avi): 0.936 nM
- Kd [2]: 14.3 nM
- Kd (MICB005-ECD-HISAvi [3]): 9.29 nM
- EC50 (human MICB005 on cells [4]): 0.804 µg/mL
- EC50 (human MICB005 on cells [5]): 0.784 µg/mL
- EC50 (human MICB005 on cells [6]): 0.836 µg/mL
- EC50 (human MICB005 on cells [7]): 0.956 µg/mL
